The values that follow come from patent US20210388087A1 (Chugai, published 2021).

B1: H183/L072 VH A54Y (antibody, name in Kabat numbering, V domains shown)
VH: QVQLVESGGGLVQPGRSLRLSCAASGFTFSNAWMHWVRQAPGKGLEWVAQIKDKGNYYAAYYAPSVKGRFTISRDDSKNSIYLQMNSLKTEDTAVYYCHYVHYASASTVLPAFGVDAWGQGTTVTVSS
VL: DIVMTQSPLSLPVTPGEPASISCQASQELVHMNRNTYLHWYQQKPGQAPRLLIYKVSNRFPGVPDRFSGSGSGTDFTLKISRVEAEDVGVYYCAQGTSVPFTFGQGTKLEIK
B2: H183/L072 VH A56E (antibody, name in Kabat numbering, V domains shown)
VH: QVQLVESGGGLVQPGRSLRLSCAASGFTFSNAWMHWVRQAPGKGLEWVAQIKDKGNAYEAYYAPSVKGRFTISRDDSKNSIYLQMNSLKTEDTAVYYCHYVHYASASTVLPAFGVDAWGQGTTVTVSS
VL: DIVMTQSPLSLPVTPGEPASISCQASQELVHMNRNTYLHWYQQKPGQAPRLLIYKVSNRFPGVPDRFSGSGSGTDFTLKISRVEAEDVGVYYCAQGTSVPFTFGQGTKLEIK
B3: H183/L072 VH A56M (antibody, name in Kabat numbering, V domains shown)
VH: QVQLVESGGGLVQPGRSLRLSCAASGFTFSNAWMHWVRQAPGKGLEWVAQIKDKGNAYMAYYAPSVKGRFTISRDDSKNSIYLQMNSLKTEDTAVYYCHYVHYASASTVLPAFGVDAWGQGTTVTVSS
VL: DIVMTQSPLSLPVTPGEPASISCQASQELVHMNRNTYLHWYQQKPGQAPRLLIYKVSNRFPGVPDRFSGSGSGTDFTLKISRVEAEDVGVYYCAQGTSVPFTFGQGTKLEIK
B4: H183/L072 VH A56I (antibody, name in Kabat numbering, V domains shown)
VH: QVQLVESGGGLVQPGRSLRLSCAASGFTFSNAWMHWVRQAPGKGLEWVAQIKDKGNAYIAYYAPSVKGRFTISRDDSKNSIYLQMNSLKTEDTAVYYCHYVHYASASTVLPAFGVDAWGQGTTVTVSS
VL: DIVMTQSPLSLPVTPGEPASISCQASQELVHMNRNTYLHWYQQKPGQAPRLLIYKVSNRFPGVPDRFSGSGSGTDFTLKISRVEAEDVGVYYCAQGTSVPFTFGQGTKLEIK
B5: H183/L072 VH A56H (antibody, name in Kabat numbering, V domains shown)
VH: QVQLVESGGGLVQPGRSLRLSCAASGFTFSNAWMHWVRQAPGKGLEWVAQIKDKGNAYHAYYAPSVKGRFTISRDDSKNSIYLQMNSLKTEDTAVYYCHYVHYASASTVLPAFGVDAWGQGTTVTVSS
VL: DIVMTQSPLSLPVTPGEPASISCQASQELVHMNRNTYLHWYQQKPGQAPRLLIYKVSNRFPGVPDRFSGSGSGTDFTLKISRVEAEDVGVYYCAQGTSVPFTFGQGTKLEIK
B6: H183/L072 VH A56L (antibody, name in Kabat numbering, V domains shown)
VH: QVQLVESGGGLVQPGRSLRLSCAASGFTFSNAWMHWVRQAPGKGLEWVAQIKDKGNAYLAYYAPSVKGRFTISRDDSKNSIYLQMNSLKTEDTAVYYCHYVHYASASTVLPAFGVDAWGQGTTVTVSS
VL: DIVMTQSPLSLPVTPGEPASISCQASQELVHMNRNTYLHWYQQKPGQAPRLLIYKVSNRFPGVPDRFSGSGSGTDFTLKISRVEAEDVGVYYCAQGTSVPFTFGQGTKLEIK
B7: H183/L072 VH A56D (antibody, name in Kabat numbering, V domains shown)
VH: QVQLVESGGGLVQPGRSLRLSCAASGFTFSNAWMHWVRQAPGKGLEWVAQIKDKGNAYDAYYAPSVKGRFTISRDDSKNSIYLQMNSLKTEDTAVYYCHYVHYASASTVLPAFGVDAWGQGTTVTVSS
VL: DIVMTQSPLSLPVTPGEPASISCQASQELVHMNRNTYLHWYQQKPGQAPRLLIYKVSNRFPGVPDRFSGSGSGTDFTLKISRVEAEDVGVYYCAQGTSVPFTFGQGTKLEIK
B8: H183/L072 VH A56K (antibody, name in Kabat numbering, V domains shown)
VH: QVQLVESGGGLVQPGRSLRLSCAASGFTFSNAWMHWVRQAPGKGLEWVAQIKDKGNAYKAYYAPSVKGRFTISRDDSKNSIYLQMNSLKTEDTAVYYCHYVHYASASTVLPAFGVDAWGQGTTVTVSS
VL: DIVMTQSPLSLPVTPGEPASISCQASQELVHMNRNTYLHWYQQKPGQAPRLLIYKVSNRFPGVPDRFSGSGSGTDFTLKISRVEAEDVGVYYCAQGTSVPFTFGQGTKLEIK
B9: H183/L072 VH A56R (antibody, name in Kabat numbering, V domains shown)
VH: QVQLVESGGGLVQPGRSLRLSCAASGFTFSNAWMHWVRQAPGKGLEWVAQIKDKGNAYRAYYAPSVKGRFTISRDDSKNSIYLQMNSLKTEDTAVYYCHYVHYASASTVLPAFGVDAWGQGTTVTVSS
VL: DIVMTQSPLSLPVTPGEPASISCQASQELVHMNRNTYLHWYQQKPGQAPRLLIYKVSNRFPGVPDRFSGSGSGTDFTLKISRVEAEDVGVYYCAQGTSVPFTFGQGTKLEIK
B10: H183/L072 VH A56S (antibody, name in Kabat numbering, V domains shown)
VH: QVQLVESGGGLVQPGRSLRLSCAASGFTFSNAWMHWVRQAPGKGLEWVAQIKDKGNAYSAYYAPSVKGRFTISRDDSKNSIYLQMNSLKTEDTAVYYCHYVHYASASTVLPAFGVDAWGQGTTVTVSS
VL: DIVMTQSPLSLPVTPGEPASISCQASQELVHMNRNTYLHWYQQKPGQAPRLLIYKVSNRFPGVPDRFSGSGSGTDFTLKISRVEAEDVGVYYCAQGTSVPFTFGQGTKLEIK
B11: H183/L072 VH A56Q (antibody, name in Kabat numbering, V domains shown)
VH: QVQLVESGGGLVQPGRSLRLSCAASGFTFSNAWMHWVRQAPGKGLEWVAQIKDKGNAYQAYYAPSVKGRFTISRDDSKNSIYLQMNSLKTEDTAVYYCHYVHYASASTVLPAFGVDAWGQGTTVTVSS
VL: DIVMTQSPLSLPVTPGEPASISCQASQELVHMNRNTYLHWYQQKPGQAPRLLIYKVSNRFPGVPDRFSGSGSGTDFTLKISRVEAEDVGVYYCAQGTSVPFTFGQGTKLEIK
B12: H183/L072 VH A56G (antibody, name in Kabat numbering, V domains shown)
VH: QVQLVESGGGLVQPGRSLRLSCAASGFTFSNAWMHWVRQAPGKGLEWVAQIKDKGNAYGAYYAPSVKGRFTISRDDSKNSIYLQMNSLKTEDTAVYYCHYVHYASASTVLPAFGVDAWGQGTTVTVSS
VL: DIVMTQSPLSLPVTPGEPASISCQASQELVHMNRNTYLHWYQQKPGQAPRLLIYKVSNRFPGVPDRFSGSGSGTDFTLKISRVEAEDVGVYYCAQGTSVPFTFGQGTKLEIK
B13: H183/L072 VH A56P (antibody, name in Kabat numbering, V domains shown)
VH: QVQLVESGGGLVQPGRSLRLSCAASGFTFSNAWMHWVRQAPGKGLEWVAQIKDKGNAYPAYYAPSVKGRFTISRDDSKNSIYLQMNSLKTEDTAVYYCHYVHYASASTVLPAFGVDAWGQGTTVTVSS
VL: DIVMTQSPLSLPVTPGEPASISCQASQELVHMNRNTYLHWYQQKPGQAPRLLIYKVSNRFPGVPDRFSGSGSGTDFTLKISRVEAEDVGVYYCAQGTSVPFTFGQGTKLEIK
B14: H183/L072 VH A56N (antibody, name in Kabat numbering, V domains shown)
VH: QVQLVESGGGLVQPGRSLRLSCAASGFTFSNAWMHWVRQAPGKGLEWVAQIKDKGNAYNAYYAPSVKGRFTISRDDSKNSIYLQMNSLKTEDTAVYYCHYVHYASASTVLPAFGVDAWGQGTTVTVSS
VL: DIVMTQSPLSLPVTPGEPASISCQASQELVHMNRNTYLHWYQQKPGQAPRLLIYKVSNRFPGVPDRFSGSGSGTDFTLKISRVEAEDVGVYYCAQGTSVPFTFGQGTKLEIK

The target of the assay is T1, Human CD137 ECD (human).
T1 construct: also called 4-1BB
T1 sequence (chain, as listed by the source limits assumed): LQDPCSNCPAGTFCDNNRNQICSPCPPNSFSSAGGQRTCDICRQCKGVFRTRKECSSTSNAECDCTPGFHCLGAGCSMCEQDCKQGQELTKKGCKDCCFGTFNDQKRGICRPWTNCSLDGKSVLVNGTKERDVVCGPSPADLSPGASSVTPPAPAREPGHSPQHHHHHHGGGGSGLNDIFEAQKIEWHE
The assay is described as follows: single mutant vs template dBBDu183H.
Regarding B1, the “fold change of affinity” value was 0.9 fold. As for B2, the figure is 0.5 fold; as for B3, 0.7 fold; as for B4, 0.2 fold. In the case of B5 it was 0.6 fold; in that of B6, 0.5 fold; in that of B7, 0.3 fold. In the case of B8, the “fold change of affinity” value came out at 0.8 fold. In the case of B9 it was 0.8 fold.

As for B10, the “fold change of affinity” value amounted to 0.7 fold. As for B11, the figure is 0.8 fold; as for B12, 0.6 fold.

As for B13, the “fold change of affinity” value turned out to be 0.2 fold. In the case of B14 it was 0.7 fold.
